Results taken from US20210061900A1 (ASTUTE MEDICAL, published 2021).
Changes are numbered by the printed parent chain.

T1: C-C motif chemokine 14 (CCL14), human (human, UniProt Q16627 20-93)
T1 construct: Residues 20-93 are the mature CCL14 it describes, with signal peptide 1-19; also called HCC-1; NCC-2
T1 sequence: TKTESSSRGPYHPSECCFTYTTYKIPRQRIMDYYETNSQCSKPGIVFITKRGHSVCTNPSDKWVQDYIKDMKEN

B1: 17H2/17K1 (antibody, V domains shown)
VH: QSVKESEGGLFKPADTLTLTCTVSGFSLSSYAINWVRQAPGEGLEYIGWISDVGTAYYASWAKSRSTITRNTDENTVTLKMTSLTAADTATYFCAGGDGSYSNYWVSDIWGQGTLVTVSS
VL: AVVLTQTASPVSAPVGGTVTVKCQASQTINSRLAWYQQKQGQPPKLLIYEASTLASGVPSRFKGSGSGTEYTLTIRGVECADAATYSCQEYADENIFGGGTEVVVK
notes: Rabbit monoclonal IgG expressed in HEK cells; Used as a labelled conjugate; also called 17H2 heavy chain / 17K1 light chain
B2: 18H1/18K1 (antibody, V domains shown)
VH: B1 VH
VL: B1 VL
notes: Rabbit monoclonal IgG expressed in HEK cells; also called 18H1 heavy chain / 18K1 light chain
B3: 19H2/19K3 (antibody, V domains shown)
VH: B1 VH with Y31F, T72A
VL: B1 VL with S31N, T53K
notes: Rabbit monoclonal IgG expressed in HEK cells; also called 19H2 heavy chain / 19K3 light chain
B4: 4H1/4K3 (antibody, V domains shown)
VH: B1 VH with Y31F, V77A
VL: B1 VL with S31N, T53K
notes: Rabbit monoclonal IgG expressed in HEK cells; Used as a labelled conjugate; also called 4H1 heavy chain / 4K3 light chain
B5: 3H1/3K1 (antibody, V domains shown)
VH: QSVRESEGGLFKPADTLTLTCTVSGFSLSSDAISWVRQAPGNGLEWIGAIDFGGSAYYASWAKSRSTITRNTNENTVTLKMTSLTAADTATYFCARSPSFGIVDRLDLWGQGTLVTVSS
VL: AVVLTQTASPVSAPVGGTVTIKCQASEDIDSYLAWYQQKPGQPPKLLIYDVFDLSSGVPSRFKGSGSGTEFTLTISDLECADAATYYCQSYYYVLGTTSTDHNSFGGGTEVVVK
notes: Rabbit monoclonal IgG expressed in HEK cells; also called 3H1 heavy chain / 3K1 light chain
B6: 31H1/31K1 (antibody, V domains shown)
VH: B5 VH
VL: B5 VL
notes: Rabbit monoclonal IgG expressed in HEK cells; also called 31H1 heavy chain / 31K1 light chain
B7: 12H2/12K1 (antibody, V domains shown)
VH: B5 VH
VL: B5 VL
notes: Rabbit monoclonal IgG expressed in HEK cells; also called 12H2 heavy chain / 12K1 light chain
B8: 2H3/2K1 (antibody, V domains shown)
VH: QEQLKESGGGLVQPGGSLKLSCKASGFAFSSDYMSWVRQAPGKGLEWIGYIDPIFGSTAYASWVNGRFTISSHNAQNTLYLHLNSLTAADTATYFCARDKDYSSGWGGYFNLWGQGTLVTVSS
VL: AIVMTQTPASVEAAVGGTVTIKCQASQSINSYLAWYQQKPGQPPRLLIYEASTLASGVPSRFKGSGSGTQFTLTISDLECADAATYYCQTYYYSVDSSVGSNAFGGGTEVVVK
notes: Rabbit monoclonal IgG expressed in HEK cells; also called 2H3 heavy chain / 2K1 light chain
B9: 25H2/25K1 (antibody, V domains shown)
VH: QSLEESGGDLVKPGASLTLTCTASRFDFSSAYYMCWVRQAPGKGLEWIACIYAGSSGGTYYATWAKGRFTISKTSSTTVTLQLTSLTAADTATYFCAGSTGNSRGSYFNLWGQGTLVTVSS
V domain: AQVLTQTPSPVSAAVGGTVTINCQSSQSVYDNNWLAWYQQKLGQPPKLVIYDASKLASGVPSRFKGSGSGTHFTLTISELQCDDSATYYCQGEYSDIWGFGGGTEVVVK
notes: Rabbit monoclonal IgG expressed in HEK cells; also called 25H2 heavy chain / 25K1 light chain
B10: 10H3/10K1 (antibody, V domains shown)
VH: B1 VH
VL: B1 VL with A8P, P10L, Q24R, T53K
notes: Rabbit monoclonal IgG expressed in HEK cells; also called 10H3 heavy chain / 10K1 light chain

target: T1, C-C motif chemokine 14 (CCL14), human; assay: lateral flow sandwich, CCL14 5 ng/mL; labelled conjugate, with 2H3/2K1 on the strip
Procedure: (§1) Various antibodies of the invention were tested for their ability to form sandwich complexes in a lateral flow format. Urine was used as a sample matrix for CCL14 antigen standards. One member of the antibody pair (the “strip” antibody) was immobilized onto a nitrocellulose membrane, and the other member of the antibody pair was prepared as a labeled conjugate with a label that is detectable by the ASTUTE 140® meter system for reading to the test strip.
(§2) To further understand the ability of the antibodies of the present invention to pair, a matrix of various antibodies was analyzed at a single CCL14 concentration of 5 ng/mL in a 100 μL sample volume. The solid phase “strip” antibody was applied to nitrocellulose in 3 μL of a 0.25 μg/mL solution. The conjugate was mixed with the sample volume to a concentration of 10 μg/mL.

Binding result, binds:
B1
B2
B3
B4

target: T1, C-C motif chemokine 14 (CCL14), human; assay: lateral flow sandwich, CCL14 5 ng/mL; strip antibody, with 4H1/4K3 conjugate
Procedure: as §1, §2

Binding result, binds:
B5
B6
B7
B8

target: T1, C-C motif chemokine 14 (CCL14), human; assay: binding to arrays of CCL14-derived peptides (epitope mapping)
Procedure: Antibodies were diluted in buffer and applied to the peptide library array. Each antibody tested was optimized for the array by testing different blocking conditions and sample concentration. […] Epitope mapping was precluded in the case of antibodies showing high binding signals throughout the array.

Binding result, binds:
B9
B10
